Results: US20230293638A1 (Eli Lilly, published 2023)
Numbering of substitutions follows the chain as printed. Numbered stars: 1 amine (or outer) side, 2 acyl side, 3 side chain; on linkers, the order of the positions; unused ones are H or OH. Square brackets hold non-standard residues; d marks the D form. Side chains are listed from the residue outwards. Ends that are not written are not given here. * marks the point of attachment. C20 diacid = O=C(O)CCCCCCCCCCCCCCCCCCC(=O)*; C18 diacid = O=C(O)CCCCCCCCCCCCCCCCC(=O)*; αMePhe(2-F) = C[C@](N)(Cc1ccccc1F)C(=O)O; γGlu = O=C(O)[C@H](CCC(=O)[*:2])N[*:1]; αMeL = CC(C)C[C@](C)(N)C(=O)O; αMeK = C[C@](N)(CCCCN)C(=O)O; αMeP = C[C@@]1(C(=O)O)CCCN1; AEEA = NCCOCCOCC(=O)O; Aib = CC(C)(N)C(=O)O

B1: Peptide 22 (peptide)
peptide: Y[Aib]EGTFTSDYSI[αMeL]LDEK([AEEA-AEEA-γGlu-C20 diacid])AQ[αMeK]AFIEYLLE[Aib]GPSSGAPPPS-NH2
modifications: N-terminus assumed
SMILES: CC[C@H](C)[C@H](NC(=O)[C@H](Cc1ccccc1)NC(=O)[C@H](C)NC(=O)[C@](C)(CCCCN)NC(=O)[C@H](CCC(N)=O)NC(=O)[C@H](C)NC(=O)[C@H](CCCCNC(=O)COCCOCCNC(=O)COCCOCCNC(=O)CC[C@H](NC(=O)CCCCCCCCCCCCCCCCCCC(=O)O)C(=O)O)NC(=O)[C@H](CCC(=O)O)NC(=O)[C@H](CC(=O)O)NC(=O)[C@H](CC(C)C)NC(=O)[C@](C)(CC(C)C)NC(=O)[C@@H](NC(=O)[C@H](CO)NC(=O)[C@H](Cc1ccc(O)cc1)NC(=O)[C@H](CC(=O)O)NC(=O)[C@H](CO)NC(=O)[C@@H](NC(=O)[C@H](Cc1ccccc1)NC(=O)[C@@H](NC(=O)CNC(=O)[C@H](CCC(=O)O)NC(=O)C(C)(C)NC(=O)[C@@H](N)Cc1ccc(O)cc1)[C@@H](C)O)[C@@H](C)O)[C@@H](C)CC)C(=O)N[C@@H](CCC(=O)O)C(=O)N[C@@H](Cc1ccc(O)cc1)C(=O)N[C@@H](CC(C)C)C(=O)N[C@@H](CC(C)C)C(=O)N[C@@H](CCC(=O)O)C(=O)NC(C)(C)C(=O)NCC(=O)N1CCC[C@H]1C(=O)N[C@@H](CO)C(=O)N[C@@H](CO)C(=O)NCC(=O)N[C@@H](C)C(=O)N1CCC[C@H]1C(=O)N1CCC[C@H]1C(=O)N1CCC[C@H]1C(=O)N[C@@H](CO)C(N)=O
B2: Peptide 180 (peptide)
peptide: Y[Aib]EGT[αMePhe(2-F)]TSDHSI[αMeL]LDEK([AEEA-AEEA-γGlu-C18 diacid])AQ[Aib]HFI[dE]YLIEGG-NH2
modifications: N-terminus assumed
SMILES: CC[C@H](C)[C@H](NC(=O)[C@H](CC(C)C)NC(=O)[C@H](Cc1ccc(O)cc1)NC(=O)[C@@H](CCC(=O)O)NC(=O)[C@@H](NC(=O)[C@H](Cc1ccccc1)NC(=O)[C@H](Cc1c[nH]cn1)NC(=O)C(C)(C)NC(=O)[C@H](CCC(N)=O)NC(=O)[C@H](C)NC(=O)[C@H](CCCCNC(=O)COCCOCCNC(=O)COCCOCCNC(=O)CC[C@H](NC(=O)CCCCCCCCCCCCCCCCC(=O)O)C(=O)O)NC(=O)[C@H](CCC(=O)O)NC(=O)[C@H](CC(=O)O)NC(=O)[C@H](CC(C)C)NC(=O)[C@](C)(CC(C)C)NC(=O)[C@@H](NC(=O)[C@H](CO)NC(=O)[C@H](Cc1c[nH]cn1)NC(=O)[C@H](CC(=O)O)NC(=O)[C@H](CO)NC(=O)[C@@H](NC(=O)[C@](C)(Cc1ccccc1F)NC(=O)[C@@H](NC(=O)CNC(=O)[C@H](CCC(=O)O)NC(=O)C(C)(C)NC(=O)[C@@H](N)Cc1ccc(O)cc1)[C@@H](C)O)[C@@H](C)O)[C@@H](C)CC)[C@@H](C)CC)C(=O)N[C@@H](CCC(=O)O)C(=O)NCC(=O)NCC(N)=O
B3: Peptide 197 (peptide)
peptide: Y[αMeP]EGTFTSDYSILLDEK([AEEA-AEEA-γGlu-C18 diacid])AQQAFIEYLIEGGPSSG-NH2
modifications: N-terminus assumed
SMILES: CC[C@H](C)[C@H](NC(=O)[C@H](CC(C)C)NC(=O)[C@H](Cc1ccc(O)cc1)NC(=O)[C@H](CCC(=O)O)NC(=O)[C@@H](NC(=O)[C@H](Cc1ccccc1)NC(=O)[C@H](C)NC(=O)[C@H](CCC(N)=O)NC(=O)[C@H](CCC(N)=O)NC(=O)[C@H](C)NC(=O)[C@H](CCCCNC(=O)COCCOCCNC(=O)COCCOCCNC(=O)CC[C@H](NC(=O)CCCCCCCCCCCCCCCCC(=O)O)C(=O)O)NC(=O)[C@H](CCC(=O)O)NC(=O)[C@H](CC(=O)O)NC(=O)[C@H](CC(C)C)NC(=O)[C@H](CC(C)C)NC(=O)[C@@H](NC(=O)[C@H](CO)NC(=O)[C@H](Cc1ccc(O)cc1)NC(=O)[C@H](CC(=O)O)NC(=O)[C@H](CO)NC(=O)[C@@H](NC(=O)[C@H](Cc1ccccc1)NC(=O)[C@@H](NC(=O)CNC(=O)[C@H](CCC(=O)O)NC(=O)[C@]1(C)CCCN1C(=O)[C@@H](N)Cc1ccc(O)cc1)[C@@H](C)O)[C@@H](C)O)[C@@H](C)CC)[C@@H](C)CC)C(=O)N[C@@H](CCC(=O)O)C(=O)NCC(=O)NCC(=O)N1CCC[C@H]1C(=O)N[C@@H](CO)C(=O)N[C@@H](CO)C(=O)NCC(N)=O
B4: Peptide 21 (peptide)
peptide: Y[Aib]EGTFTSDYSI[αMeL]LDEK([AEEA-AEEA-γGlu-C20 diacid])AQ[αMeK]AFIEYLLEGGPSSGAPPPS-NH2
modifications: N-terminus assumed
SMILES: CC[C@H](C)[C@H](NC(=O)[C@H](Cc1ccccc1)NC(=O)[C@H](C)NC(=O)[C@](C)(CCCCN)NC(=O)[C@H](CCC(N)=O)NC(=O)[C@H](C)NC(=O)[C@H](CCCCNC(=O)COCCOCCNC(=O)COCCOCCNC(=O)CC[C@H](NC(=O)CCCCCCCCCCCCCCCCCCC(=O)O)C(=O)O)NC(=O)[C@H](CCC(=O)O)NC(=O)[C@H](CC(=O)O)NC(=O)[C@H](CC(C)C)NC(=O)[C@](C)(CC(C)C)NC(=O)[C@@H](NC(=O)[C@H](CO)NC(=O)[C@H](Cc1ccc(O)cc1)NC(=O)[C@H](CC(=O)O)NC(=O)[C@H](CO)NC(=O)[C@@H](NC(=O)[C@H](Cc1ccccc1)NC(=O)[C@@H](NC(=O)CNC(=O)[C@H](CCC(=O)O)NC(=O)C(C)(C)NC(=O)[C@@H](N)Cc1ccc(O)cc1)[C@@H](C)O)[C@@H](C)O)[C@@H](C)CC)C(=O)N[C@@H](CCC(=O)O)C(=O)N[C@@H](Cc1ccc(O)cc1)C(=O)N[C@@H](CC(C)C)C(=O)N[C@@H](CC(C)C)C(=O)N[C@@H](CCC(=O)O)C(=O)NCC(=O)NCC(=O)N1CCC[C@H]1C(=O)N[C@@H](CO)C(=O)N[C@@H](CO)C(=O)NCC(=O)N[C@@H](C)C(=O)N1CCC[C@H]1C(=O)N1CCC[C@H]1C(=O)N1CCC[C@H]1C(=O)N[C@@H](CO)C(N)=O
B5: Peptide 172 (peptide)
peptide: YXEGTXTSDHSIXLDXKAQXTFIXYLIEGGPSSGAPPPS
modifications: Aib2; αMeF(2F)6; αMeL13; Dab16; K17((2-[2-(2-Amino-ethoxy)-ethoxy]-acetyl)2-(γGlu)-CO-(CH2)18-CO2H); Aib20; D-Glu24; C-terminal NH2
B6: Peptide 207 (peptide)
peptide: B5 peptide with H10X, X16E, T21E
modifications: Aib2; αMeF(2F)6; 4Pal10; αMeL13; K17((2-[2-(2-Amino-ethoxy)-ethoxy]-acetyl)2-(εK)-CO-(CH2)18-CO2H); Aib20; D-Glu24; C-terminal NH2
B7: Peptide 203 (peptide)
peptide: B5 peptide with H10X, X16K, T21E
modifications: Aib2; αMeF(2F)6; 4Pal10; αMeL13; K17((2-[2-(2-Amino-ethoxy)-ethoxy]-acetyl)2-(γGlu)-CO-(CH2)18-CO2H); Aib20; D-Glu24; C-terminal NH2
B8: Peptide 173 (peptide)
peptide: B5 peptide
modifications: Aib2; αMeF(2F)6; αMeL13; Dap16; K17((2-[2-(2-Amino-ethoxy)-ethoxy]-acetyl)2-(γGlu)-CO-(CH2)18-CO2H); Aib20; D-Glu24; C-terminal NH2
B9: Peptide 187 (peptide)
peptide: B5 peptide with H10Q, X16E, T21E
modifications: Aib2; αMeF(2F)6; αMeL13; K17((2-[2-(2-Amino-ethoxy)-ethoxy]-acetyl)2-(γGlu)-CO-(CH2)18-CO2H); Aib20; D-Glu24; C-terminal NH2
B10: Peptide 204 (peptide)
peptide: B5 peptide with H10X, X16E, T21E
modifications: Aib2; αMeF(2F)6; 4Pal10; αMeL13; K17((2-[2-(2-Amino-ethoxy)-ethoxy]-acetyl)2-(γGlu)-CO-(CH2)16-CO2H); Aib20; D-Glu24; C-terminal NH2
B11: Peptide 208 (peptide)
peptide: B5 peptide with H10Y, X16E, T21E
modifications: Aib2; αMeF(2F)6; αMeL13; K17((2-[2-(2-Amino-ethoxy)-ethoxy]-acetyl)2-(γGlu)-CO-(CH2)14-CO2H); Aib20; D-Glu24; C-terminal NH2

Target: human GLP-1 receptor (human, UniProt P43220 24-463)
Assay: cell-based or functional assay

| Binder | hGLPIR cAMP EC50 ratio |
| --- | --- |
| B1 | 0.29 |
| B2 | 0.0212 |
| B3 | 0.189 |
| B4 | 0.402 |
| B5 | 0.038 |
| B6 | 1.23 |
| B7 | 0.671 |
| B8 | 0.0373 |
| B9 | 0.702 |
| B10 | 0.689 |
| B11 | 0.587 |
